Source: paper PMC9022995, “Sequence and structural variations determining the recruitment of WNK kinases to the KLHL3 E3 ligase” (Biochemical Journal, 2022)
Square brackets hold non-standard residues; d marks the D form. Ends that are not written are not given here. Peptide text beside a SMILES is read from it. Lumio green = fluorophore conjugated via N-terminal linker CCPGCCGGGG; Rhodamine‑110 = fluorophore on the N-terminus; pT = C[C@@H](OP(=O)(O)O)[C@H](N)C(=O)O

Legend:
[1] = test system: WNK3 protein levels in HEK293 cells co-transfected with KLHL3-FLAG; assay: KLHL3-mediated degradation of WNK3 on co-transfection, immunoblotting for WNK3 protein levels; format: cell-based; conditions: WNK3-HA wild type or mutant with increasing KLHL3-FLAG, 48 h post transfection, immunoblot, three independent experiments, mean ± SEM
Method: Figure 3. T541E substitution in WNK3 affects its KLHL3-targeted degradation in HEK293 cells. (A) WNK3-HA protein levels were investigated in HEK293 cells transfected with either wild type or mutant constructs and increasing concentrations of KLHL3-FLAG. A representative blot is presented. (B) Quantitative results of three independent experiments. Data are mean ± SEM. * P < 0.01, ** P < 0.0005.
HEK293 cells (ATCC® CRL-1573) were grown in Dulbecco's modified Eagle's medium (DMEM) supplemented with 10% fetal bovine serum to 70–80% confluence and transfected using Lipofectamine 2000 (Life Technologies, Inc.) with wild type or mutant WNK3-HA [46] and with different concentrations of KLHL3-FLAG [42]. Forty-eight hours post transfection, cells were lysed and protein concentration was quantified by the BCA protein assay (Pierce). Samples were diluted in Laemmli buffer and subjected to SDS–PAGE. Proteins were transferred to PVDF membranes which were then blocked for 1 h in 10% (w/v) non-fat milk dissolved in TBS- Tween 20 0.1% (TBSt). Antibodies were diluted in 5% (w/v) non-fat milk-TBSt. Incubation with HRP-coupled primary antibodies was performed overnight. Immunoblots were developed using radiographic film.
Lysis buffer: 50 mM Tris–HCl (pH 7.5), 1 mM EGTA, 1 mM EDTA, 50 mM sodium fluoride, 5 mM sodium pyrophosphate, 1 mM sodium orthovanadate, 1% (w/v) IGEPAL CA-630, 270 mM sucrose, 0.1% (v/v) 2-mercaptoethanol, and protease inhibitors (Complete tablets (Roche Applied Science).

[2] = target: T1, KLHL3 Kelch domain (GST-KLHL3, a.a. 298–587) (Homo sapiens, UniProt Q9UH77); assay: Fluorescence polarisation assay for the binding of WNK3 variants; conditions: 25°C; for Kd: GST-KLHL3 a.a. 298–587, 50 mM Tris–HCl pH 7.5, 150 mM NaCl, 2 mM DTT, one site specific binding with Hill slope, three technical replicates per point
T1 construct: using KLHL3 Kelch domain (GST-KLHL3, a.a. 298–587, MRC-PPU plasmid DU44387); host or cells: E. coli BL21
T1 sequence (Q9UH77 298-587): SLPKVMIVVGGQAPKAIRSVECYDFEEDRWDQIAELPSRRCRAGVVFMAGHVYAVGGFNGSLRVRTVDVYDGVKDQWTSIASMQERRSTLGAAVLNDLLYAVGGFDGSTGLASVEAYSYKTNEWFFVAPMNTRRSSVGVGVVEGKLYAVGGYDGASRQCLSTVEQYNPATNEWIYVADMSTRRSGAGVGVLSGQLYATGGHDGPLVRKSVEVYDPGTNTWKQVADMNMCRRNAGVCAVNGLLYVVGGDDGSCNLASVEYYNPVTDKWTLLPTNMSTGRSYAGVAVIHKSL
Method: Figure 2. Analysis of the interaction between KLHL3 and WNK3 variants by fluorescence polarisation. Purified GST-KLHL3 a.a. 298–587 was diluted appropriately and mixed at a 1 : 1 volume ratio with 20 nM Lumino-Green-labelled WNK3 peptides to the concentration stated in the Figure, with the peptide concentration consistent at 10 nM. Fluorescence polarisation measurements were recorded and corrected to the fluorescent probe alone. Each data point represents three technical replicates. One site-specific binding with hill slope was assumed and the disassociation constant was obtained. Binding curves, assuming one-site-specific binding, were then generated with Prism6 using milli-polarization (mP) units. TEXT PRINTED IN THE PICTURE: WNK3 [a.a.537-547] […] E541: KD > 50 μM | WNK3 [a.a.537-547] pT541: KD > 50 μM
For fluorescence polarisation measurements of WNK3 variants, the Kelch domain of human KLHL3 (a.a. […]) was cloned into the bacterial expression vector pGEX6P-1 (MRC-PPU plasmid DU44387) and expressed as a GST fusion protein as previously described. Briefly, E. coli BL21 cells were transformed with plasmid DNA and grown at 37°C in LB broth containing 100 µg/ml ampicillin until OD600 reached 0.6. Cells were then cultured at 16°C for a further 16 h in the presence of 50 µM IPTG for protein induction. Harvested cells were lysed by sonication and the lysate clarified by centrifugation. GST fusion protein was affinity purified using 0.5 ml glutathione–sepharose beads and eluted in buffer (50 mM Tris–HCl pH 7.5, 150 mM NaCl, 2 mM DTT) containing 20 mM glutathione.
Fluorescence polarisation measurements were performed at 25°C using KLHL3 Kelch domain (GST-KLHL3, a.a. 298–587, MRC-PPU plasmid DU44387) buffered in 50 mM Tris–HCl pH 7.5, 150 mM NaCl, 2 mM DTT. All peptides (ECEETEVDQHV, WNK3 a.a. 537–547), (ECEET(P)EVDQHV, WNK3 a.a. 537–547, Thr541 is phosphorylated), and (ECEEEEVDQHV, WNK3 a.a. 537–547, Thr541 is mutated to Glu) were conjugated to the Lumio green fluorophore via an N-terminal linker (CCPGCCGGGG) and dialysed into assay buffer before use. Samples were prepared with 10 nM Lumio-green labelled peptide and the indicated concentration of protein in a final volume of 30 µl. Fluorescence polarisation measurements were recorded using a BMG PheraStar plate reader, with an excitation wavelength of 485 nm and an emission wavelength of 538 nm, and measurements were corrected to the fluorescent probe alone. Data analysis and graphing were performed in GraphPad Prism6. One Site Specific binding with Hill Slope was assumed (model Y = Bmax × X^h/KD^h + X^h) and the disassociation constant, and associated standard error was obtained.

[3] = target: Lumio green-labelled WNK3 degron peptide (…, WNK3 a.a. 537–547) (human); assay: fluorescence polarisation; 10 nM Lumio green-labelled WNK3 peptide titrated with GST-KLHL3 Kelch domain; 25°C; 50 mM Tris–HCl pH 7.5, 150 mM NaCl, 2 mM DTT; one site specific binding with Hill slope
[4] = target: Lumio green-labelled phospho-WNK3 peptide (ECEET(P)EVDQHV, WNK3 a.a. 537–547, Thr541 phosphorylated) (human); assay: as above
[5] = target: T2, KLHL3 Kelch domain (a.a. 298–587) (human, UniProt Q9UH77-1 298-587); assay: FP; 0 mM Cl-
T2 chain: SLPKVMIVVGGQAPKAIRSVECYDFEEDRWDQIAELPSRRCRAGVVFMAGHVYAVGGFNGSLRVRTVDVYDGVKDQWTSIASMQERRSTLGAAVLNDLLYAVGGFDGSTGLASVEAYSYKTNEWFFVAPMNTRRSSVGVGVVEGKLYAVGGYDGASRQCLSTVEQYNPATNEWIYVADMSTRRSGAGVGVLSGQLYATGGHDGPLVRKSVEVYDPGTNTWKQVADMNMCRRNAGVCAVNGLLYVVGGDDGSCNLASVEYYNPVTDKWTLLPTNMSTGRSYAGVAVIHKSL

[6] = target: T2, KLHL3 Kelch domain (a.a. 298–587); assay: FP; 150 mM F-
[7] = target: T2, KLHL3 Kelch domain (a.a. 298–587); assay: FP; 18 mM Cl-
[8] = target: T2, KLHL3 Kelch domain (a.a. 298–587); assay: FP; 37 mM Cl-
[9] = target: T2, KLHL3 Kelch domain (a.a. 298–587); assay: FP; 75 mM Cl-
[10] = target: T2, KLHL3 Kelch domain (a.a. 298–587); assay: FP; 150 mM Cl-
[11] = target: T2, KLHL3 Kelch domain (a.a. 298–587); assay: FP; 2.4 mM Cl-
[12] = target: T2, KLHL3 Kelch domain (a.a. 298–587); assay: FP; 4.7 mM Cl-
[13] = target: T2, KLHL3 Kelch domain (a.a. 298–587); assay: FP; 9.5 mM Cl-
[14] = target: T3, KLHL3 Kelch domain (a.a. 298–587) (human, UniProt Q9UH77-1 298-587); assay: fluorescence polarisation; 10 nM Rhodamine-110 labelled peptide with KLHL3 (a.a. 298–587) from 0 to 3200 or 6400 nM; 25°C; test of the effect of chloride concentration; one site total fit; conditions: both partners purified
T3 construct: Kelch-like protein 3 (KLHL3), human, Kelch domain, a.a; 298–587; Vector pNIC28-Bsa4; the hexahistidine tag was cleaved with TEV protease; It is not clear whether Addgene #110251 names the vector or the construct; also called KLHL3 (a.a. 298–587); source: E. coli BL21(DE3)-pRARE, purified (nickel-sepharose, SEC, TEV cleavage); not shown: His6, N-terminal, cleaved
T3 sequence (looked up): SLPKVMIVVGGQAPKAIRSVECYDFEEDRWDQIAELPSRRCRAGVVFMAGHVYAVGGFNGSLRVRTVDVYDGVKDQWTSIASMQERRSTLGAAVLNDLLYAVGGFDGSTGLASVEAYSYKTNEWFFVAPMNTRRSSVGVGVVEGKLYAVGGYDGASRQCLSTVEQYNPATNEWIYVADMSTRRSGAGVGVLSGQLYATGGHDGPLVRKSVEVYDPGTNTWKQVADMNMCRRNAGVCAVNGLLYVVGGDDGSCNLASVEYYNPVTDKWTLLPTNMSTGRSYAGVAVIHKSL

[15] = target: T4, GST-KLHL3 Kelch domain (a.a. 298–587) (human, UniProt Q9UH77 298-587); assay: FP
T4 chain: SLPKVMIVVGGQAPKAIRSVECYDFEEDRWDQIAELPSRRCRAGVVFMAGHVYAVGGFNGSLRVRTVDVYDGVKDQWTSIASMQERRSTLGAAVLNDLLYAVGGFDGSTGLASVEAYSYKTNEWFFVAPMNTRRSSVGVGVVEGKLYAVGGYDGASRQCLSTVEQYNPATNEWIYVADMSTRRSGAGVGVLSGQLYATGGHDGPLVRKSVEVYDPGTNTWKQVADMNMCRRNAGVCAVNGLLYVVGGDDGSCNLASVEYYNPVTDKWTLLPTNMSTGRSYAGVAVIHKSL

[16] = 10 nM Lumio-green labelled peptide (N-terminal linker CCPGCCGGGG), 30 µl, ex 485/em 538 nm, repeated at least twice

“WNK3 T541E: WNK3-HA mutant T541E transfected in HEK293 cells” was tested, and the “WNK3 levels / KLHL3-mediated degradation (in words)” value [1] was “noticeably resistant to degradation”.

With “WNK3: wild type WNK3-HA transfected in HEK293 cells” the “WNK3 levels / KLHL3-mediated degradation (in words)” value [1] was “significantly lower than in the absence of KLHL3, even at the lowest amounts of KLHL3 DNA used for transfection”.

In the case of `CC(C)[C@H](NC(=O)[C@H](Cc1c[nH]cn1)NC(=O)[C@H](CCC(N)=O)NC(=O)[C@H](CC(=O)O)NC(=O)[C@@H](NC(=O)[C@H](CCC(=O)O)NC(=O)[C@@H](NC(=O)[C@H](CCC(=O)O)NC(=O)[C@H](CCC(=O)O)NC(=O)[C@H](CS)NC(=O)[C@@H](N)CCC(=O)O)[C@@H](C)OP(=O)(O)O)C(C)C)C(=O)O` [WNK3 [a.a.537-547] pT541] (H-ECEE[pT]EVDQHV-OH; N-terminus and C-terminus assumed), the Kd [2, 16] is reported as greater than 50000 nM and the “KLHL3 interaction (in words)” value ([2]; fluorescence polarisation, GST-KLHL3 a.a. 298–587, 10 nM Lumio-green labelled peptide, pH 7.5) is reported as “too severely destabilised to measure a dissociation constant”.

ECEETEVDQHV [WNK3 [a.a.537-547] WT] showed a Kd [2, 16] of 670 nM.

ECEEEEVDQHV [WNK3 [a.a.537-547] E541] gave a Kd ([2]; printed in Figure 2 picture, 10 nM Lumio-green labelled peptide) greater than 50000 nM.

“T541A: WNK3-HA mutant T541A transfected in HEK293 cells” was tested, and the “WNK3 levels / KLHL3-mediated degradation (in words)” value [1] was “reduced KLHL3-mediated degradation of WNK3”.

For “GST-KLHL3 Kelch domain (a.a. 298–587) (from UniProt Q9UH77 298-587) (domain or fragment)”, the Kd [3] was 670 nM and the Kd [4] was greater than 50000 nM.

B1: Rhodamine-110 labelled WNK4 degron peptide (EPEEPEADQHQ) (peptide)
peptide: {Rhodamine‑110}-EPEEPEADQHQ
notes: WNK4 acidic degron motif, residues 557–567; also called 11-residue degron from WNK4; source: synthetic peptide (Fmoc solid phase, purified by HPLC)
B1 showed a Kd [5] of 700 nM, a Kd [6] of 300 nM and a Kd [7] of 600 nM. The Kd [8] was 600 nM, the Kd [9] was 600 nM and the Kd [10] was 700 nM. The Kd [11] was 600 nM, the Kd [12] was 600 nM and the Kd [13] was 600 nM. B1: binds [14].

For {Lumio green}-CCPGCCGGGGECEEEEVDQHV (cysteine pairing not given here) [Lumio green-labelled WNK3 T541E peptide (ECEEEEVDQHV, WNK3 a.a. 537–547, Thr541 mutated to Glu)], the Kd [15] was greater than 50000 nM.

For {Rhodamine‑110}-ECEETEVDQHV [Rhodamine-110 labelled WNK3 degron peptide (ECEETEVDQHV)], the Kd [5] was 1700 nM, the Kd [6] was 1100 nM and the Kd [7] was 1400 nM. It also gave a Kd [8] of 1500 nM, a Kd [9] of 1300 nM and a Kd [10] of 1300 nM. For the same molecule, the Kd [11] was 1200 nM, the Kd [12] was 1700 nM and the Kd [13] was 1300 nM.
